According to the nanobody polyreactivity screen of Harvey et al. (2022):

Test: yeast display, Sf9 membrane polyspecificity reagent, FACS + sequencing; frameworks hold sequencing errors
How it was run: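 Galactose induction of a Saccharomyces cerevisiae BJ5465 synthetic nanobody display library ran 36–48 hours. The cells were then stained for 1 hour at 4 °C with 10% biotinylated, detergent-solubilized Sf9 membrane reagent, pulled down on streptavidin microbeads and FACS-sorted into low and high (top ~1%) gates on expression and reagent-binding fluorescence. Labels for polyreactivity follow the gate of origin.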

Sequence	polyreactivity (PSR sort gate)
QVQLVESGGGLVQAGGSLRLSCAASGTFRRYTMGWYRQAPGKERELVAAITSSGGTYYADSVKGRFTISRDNAKNTVYLQMNSLKPEDTAVYYCAARDYWSRYFRPGIVGWHDYWGQGTQVTVSS	high polyreactivity
QVQLVESGGGLVQAGGSLRLSCAASGTFTVNTMGWSRQAPGKERELVAAISTGDTTTYADSVKGRFTISRDNAKNTVYLQMNSLKPEDTAVYYCNAVAKLYYWRYDYWGQGTQVTVSS	low polyreactivity
QVQLVESGGGLVQAGGSLRLSCAASGTFVLSAMGWYRPAPGKERELVAAISKTGRTYYADSVKGRFTISRDNAKNTVYLQMNSLKPEDTSVYYCAAQRFSKFGYWGQGTQVTVSS	high polyreactivity
QVQLVESGGGLVQAGGSLRLSCAASGTFWGYAMGWYRQAPGKERELVAAISASGASTSYADSVKGRFTISRDNAKNTVYLQMNSLKPEDTAVYYCDARRNTAYGYWGQGTQVTVSS	high polyreactivity
QVQLVESGGGLVQAGGSLRLSCAASGTFYTNAMGWYRPAPGKERELVAAITSGGSTYYADSVKGRFTISRDNAKNTVYLQMNSLKPEDTAVYYCAADPVSHGYDIDYDYWGQGTQVTVSS	low polyreactivity
QVQLVESGGGLVQAGGSLRLSCAASGTFYYYAMGWYRPAPGKERELVAAIDYSGGSTYYADSVKGRFTISRDNAKNTVYLQMNSLKPEDTAVYYCAYVSVYDFEYWGQGTQVTVSS	high polyreactivity
QVQLVESGGGLVQAGGSLRLSCAASGTIFDSYAKVWYRQAPGKERELVAAISSSVGSTYYADSVKGRFTISRDNAKNTVYLQMNSLKPEDTAVYYCNADEYWASGYDPYDYWGQGTQVTVSS	low polyreactivity
QVQLVESGGGLVQAGGSLRLSCAASGTIFFPNAMGWYREAPGKERELVAAISWSGDSTYADSVKGRFTISRDNAKNTVYLQMNSLKPQDTAVYYCAAVYLWWSYEFDYWGQGTQVTVSS	low polyreactivity
QVQLVESGGGLVQAGGSLRLSCAASGTIFQQYAMGWYRQAPGKERELVAAISYSGGTTYYADSVKGRFTISRDNAKNTDYLEMNSLKPEDTAVYYCAAYYPSGSYDYYWGQGTQVTVSS	low polyreactivity
QVQLVESGGGLVQAGGSLRLSCAASGTIFVPYAMGWYRQAPGKERELVAVITSGGSTYYADSVKGRFTISRDNAKNTVYLQMNSLKPEDTAVYYCNADLYYVWSTLSQFDYWGQGTQVTVSS	low polyreactivity
QVQLVESGGGLVQAGGSLRLSCAASGTIFYDNAMGWYRQAPAKERELVASIRWSGDSTYYADSVKGRFTISRDNAKNTVYLQMISLKPEDTAVYYCAADPVEPYFTAIAYDYWGQGTQVTVSS	low polyreactivity
QVQLVESGGGLVQAGGSLRLSCAASGTTFAYYAMGWYRQAPGKERELVAVISVRGGSTYYADSVKGRFTISRDNAKNTVYLQMNSLKPEDTAVYYCAADTFAGYYYWGQGTQVTVSS	high polyreactivity
QVQLVESGGGLVQAGGSLRLSCAASGTTFPRYAMGWYRQAPGKERELVAAISSGGSTYYADSVKGRFTISRDNAKNTVYLQMNRLKPEDTAVYYCNARRSRSRYDYWGQGTQVTVSS	high polyreactivity
QVQLVESGGGLVQAGGSLRLSCAASGTTFSPNAMGWYRQAPGKERELVAAITGGGSTYADSVKGRFTISRDNAKNTVYLQMNSLKPEDTAVYYCNADSYSFPYYYWGQGTQVTVSS	low polyreactivity
QVQLVESGGGLVQAGGSLRLSCAASGTTFTFNAMGWYRQAPGKEREFVAAITASGGRTYYADSVKGRFTISRDNAKNTVYLQMNSLKPEDTAVYYCAAHACLLGPGDFNYWGQGTQVTVSS	low polyreactivity
QVQLVESGGGLVQAGGSLRLSCAASGTTFVKNDMGWYRQAPGKERELVAAISGGSTNYADSVKGRFTISRDNAKNTVYLQMNSLKPEDTAVYYCAAVQWYTSIEGIQPYYYWGQGTQVTVSS	low polyreactivity
QVQLVESGGGLVQAGGSLRLSCAASGTTFVSNAMGWYRQAPGKERELVAAISKSGGSTYYADSVKGRFTISRDNAKNTVYLQMNSLKPEDTAVYYCAKYTAKSFYGQYDYWGQGTQVTVSS	high polyreactivity
QVQLVESGGGLVQAGGSLRLSCAASGTTFYYYAMGWYRQAPGKEREFVAAIRFSGSRTYYADSVKGRFPISRDNAKNTVYLQMNSLIPEDTAVYYCARATLPSVSYYRKLFDYWGQGTHVTVSS	high polyreactivity
QVQLVESGGGLVQAGGSLRLSCAASGTTIETYASGWYRQAPGKERELVATITSGGSTYYAYSVKGRFTISRDTAKITVYLQMNSLKPEDTSVYYCAAGRYGGKHVWYYYWGQGTQVTVSS	high polyreactivity
QVQLVESGGGLVQAGGSLRLSCAASGTYKYYAMGWYRHAPGKERELVAATNRGGSTNYADSVKGRFTISRDNAKNTVYLQMNSLKPEDTAVYYCAAERWYVRGRHYYYWGQGTQVTVSS	high polyreactivity
QVQLVESGGGLVQAGGSLRLSCAASGTYTNAMGWYRQAPGKERELVAAITSSGGSTYYADSVKGRFTISRDNAKNTVYLQMNSLKPEDTAVYYCAKPGVYEVSYTYGYWGQGTQVTVSS	low polyreactivity

Sequence	polyreactivity (PSR sort gate)
QVQLVESGGGLVQAGGSLRLSCAASGVIFGAYAMGWYRQAPGKERELVAAISSRGTSTYYADSVKGRFTISRDNAKNTVYLQMNSLKPEDTAVYYCNVYYIPLRRYDYWGQGTQVTVSS	high polyreactivity
QVQLVESGGGLVQAGGSLRLSCAASGVIFKPSAMGWYRQAPGKERELVASISTGARTYYADSVKGRFTISRDTAKNTVYLQLNSLKPEDTAVYYCAAAYSRWITRYDYWGQGTQVTVSS	high polyreactivity
QVQLVESGGGLVQAGGSLRLSCAASGVIFYFNALGWYRQAPGKERELVAAISGGDNTYYADSVKGRFTISRDNAKNTVYLQMNSLKPEDTAVYYCAAKYRYGQNGYYLYGYWGQGTQVTVSS	low polyreactivity
QVQLVESGGGLVQAGGSLRLSCAASGVNAMGWYRPAPGKEREFVAAITSIGGSTYYADSVKGRFTISRDNAKNTVYLQMNSLKPEDTAVYYCNTDRGPVKVSPLYVSWGQGTQVTLSS	low polyreactivity
QVQLVESGGGLVQAGGSLRLSCAASGYAKGWYRQAPGKESELDAAITSNGGRTYYADSVKGRFTISRDNAKNTVYIQMNSLKPEDTAVYYCATRSGPHYKTRWTYDLGYWGQGSQVTVSS	low polyreactivity
QVQLVESGGGLVQAGGSLRLSCAASGYAMGWYRQAPGKERELVAAITRRGGSTYYADSVKGRFTISRDNAKNTVYLQMNSLKPEDTAVYYCAADNPSYNLWYGYWGQGTQVTVSS	low polyreactivity
QVQLVESGGGLVQAGGSLRLSCAASGYARGWYRQAPGKERELVAAITSGGSTNYADSVKGRFTISRDNAKNTVYLQMNSLKPEDTAVYYCAAAYSLYGHRYDYWGQGTQVTVSS	low polyreactivity
QVQLVESGGGLVQAGGSLRLSCAASGYGYVMGWYRQAPGKERELVAAISRSGGSTYYADSVKGRFTISRDNAKNTVYFQMNSLIPEDTAVYDCAARWPGAYHDYGYWGQVTQVTVSS	high polyreactivity
QVQLVESGGGLVQAGGSLRLSCAASGYIFALNAMGWYRPAPGKEWELVAAINDSGDSTYYADSVKGRFTISRDNAKNTVYLQMNSLKPEDTAVYYCAAGFSYEWCYPTFDYWGQGTQVTVSS	low polyreactivity
QVQLVESGGGLVQAGGSLRLSCAASGYIFASYAMGWYRPAPGKERELVAAISIGGNTNYADSVKGRFTISRDNAKNTVYLQMNSLKPEDTAVYYCAAKTPRYRYGYWRQGTQVTVSS	low polyreactivity
QVQLVESGGGLVQAGGSLRLSCAASGYIFATNAMGWYRQSPGKERELVAAITRSGGRTYYADSVKGRFTISRDNAKNTVYLQMNSLKPEDTAVYYCAAARPTNIYYYWGQGTQVTVSS	high polyreactivity
QVQLVESGGGLVQAGGSLRLSCAASGYIFATYAMGWYRQAPGKERELVAAISWSGGRTYYADSVKGRFTISRDNAKNTVYLQMNGLKPEVTAVYYCAAQSYSRMDYWGQGTQVTVSS	high polyreactivity
QVQLVESGGGLVQAGGSLRLSCAASGYIFAVYAMGWYRQAPGKEREFVAVITWRGGSTYYADSVKGRFTISRDNAKNTVYLQMNSLKPEDTAVYYCAADVYAQYDYWGQGTQVTVSS	high polyreactivity
QVQLVESGGGLVQAGGSLRLSCAASGYIFDGNAMGWYRQAPGKERELVAPITWTGGSTYYADSVKGRFTISRDNAKNTVYLQMNSLKPEDTAVYYCAKPYDPGPYHSSYRATDDYWGQGTQVTVSS	low polyreactivity
QVQLVESGGGLVQAGGSLRLSCAASGYIFDIYAMGWYRQAPGKERELVAVITRSGGGTYYADSVKGRFTISRDNAKNTVYFQMNSLKPEDTAVYYCAAESYVYGGSDYVYWGQGTEVTVSS	low polyreactivity
QVQLVESGGGLVQAGGSLRLSCAASGYIFDRNAMGWYRQAPGKERELLAAITKRGGITYYADSVKGRFTISRDNAKNTVYLQMNSLKPEDTAVYYCAADIGYYVYNDYDYWGQGTQVTVSS	low polyreactivity
QVQLVESGGGLVQAGGSLRLSCAASGYIFDVYDMGWYRQAPGKERELVAAITDYADSVKGRFTISRDNAKNTVYLQMNSLKPEDTAVYYCAADTDVLKGTTGFEYWGQGTQVTVSS	low polyreactivity
QVQLVESGGGLVQAGGSLRLSCAASGYIFDWNAMGCYRQAPGKERELVAAISSGGRTNYADSVKGRFTISRDNAKNTVYLQMNSLKPEDTAVYYCNTGPYTFDSPEYYYWGQGTQVTVSS	low polyreactivity
QVQLVESGGGLVQAGGSLRLSCAASGYIFDYYAMGWYRQAPGKERELVAAISSSGGTTYYADSVKGRFTISRDNAKNTVYLQMNSLKPEDTEVYYCAARKSRWHRGYYYWGQGTQVTVSS	high polyreactivity
QVQLVESGGGLVQAGGSLRLSCAASGYIFDYYAMGWYRQAPGKERELVAGISRRGGSTYYADSVKGRFTISRDNAKNTVYLQMNSLKPEDTAVYYCAGLGDDATSYGYWGQGTQVTVSS	high polyreactivity
